Test results as given in publication PMC2988884 (Nature structural & molecular biology, 2010).

T1: Trs120 with a C-terminal TAP tag (Trs120-TAP) (S. cerevisiae (endogenous in yeast), UniProt Q04183 1-1289)
T1 sequence (looked up): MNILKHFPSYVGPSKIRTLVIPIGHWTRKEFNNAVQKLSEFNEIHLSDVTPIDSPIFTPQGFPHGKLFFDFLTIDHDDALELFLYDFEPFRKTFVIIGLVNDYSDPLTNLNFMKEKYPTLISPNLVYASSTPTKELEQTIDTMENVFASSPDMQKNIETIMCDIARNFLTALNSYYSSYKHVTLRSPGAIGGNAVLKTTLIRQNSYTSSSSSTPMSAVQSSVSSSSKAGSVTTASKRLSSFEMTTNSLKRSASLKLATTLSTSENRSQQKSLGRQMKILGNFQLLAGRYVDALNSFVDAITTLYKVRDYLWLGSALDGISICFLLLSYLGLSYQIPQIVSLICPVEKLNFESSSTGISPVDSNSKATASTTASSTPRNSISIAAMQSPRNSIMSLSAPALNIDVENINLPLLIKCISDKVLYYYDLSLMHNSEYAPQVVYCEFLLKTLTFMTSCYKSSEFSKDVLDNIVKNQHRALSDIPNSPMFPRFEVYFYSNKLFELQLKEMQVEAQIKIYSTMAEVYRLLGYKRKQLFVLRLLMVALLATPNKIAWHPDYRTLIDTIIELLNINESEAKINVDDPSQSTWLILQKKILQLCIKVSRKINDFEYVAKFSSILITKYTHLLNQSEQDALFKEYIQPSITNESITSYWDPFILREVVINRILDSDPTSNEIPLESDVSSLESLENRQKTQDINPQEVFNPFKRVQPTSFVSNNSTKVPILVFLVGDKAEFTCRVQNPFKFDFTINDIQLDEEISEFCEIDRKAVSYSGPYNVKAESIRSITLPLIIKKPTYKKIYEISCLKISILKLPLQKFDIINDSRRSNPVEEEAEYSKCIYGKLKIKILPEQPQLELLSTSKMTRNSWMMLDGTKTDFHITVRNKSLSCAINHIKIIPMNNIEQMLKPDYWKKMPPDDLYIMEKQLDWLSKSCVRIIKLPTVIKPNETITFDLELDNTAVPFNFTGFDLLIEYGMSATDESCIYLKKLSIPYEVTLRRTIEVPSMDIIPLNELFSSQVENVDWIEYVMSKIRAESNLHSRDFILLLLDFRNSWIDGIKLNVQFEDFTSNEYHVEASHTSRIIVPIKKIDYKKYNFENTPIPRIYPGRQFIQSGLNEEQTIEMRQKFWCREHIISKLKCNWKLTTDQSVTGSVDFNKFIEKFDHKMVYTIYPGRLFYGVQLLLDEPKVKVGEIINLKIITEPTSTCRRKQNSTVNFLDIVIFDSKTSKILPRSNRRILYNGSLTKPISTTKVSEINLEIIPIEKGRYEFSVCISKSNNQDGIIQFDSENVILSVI

B1: Trs130 (natural protein, S. cerevisiae (endogenous in yeast), UniProt Q03660 1-1102, looked up)
chain: MDKEIYCGSVPVSYFDPFDLFESLRPEFQQILPLDNIHWKAFDGTVRTVNRLPIELIPEGRGEADKSNDEQPFIRFLIVNCISIDQYRAKVRPLVRQWLPNLESVSSSTGEKMIYKPIILLYANSEVVDSNLFKSVSLMEKFGKDFPHVQTLEVRSVYRSPKERQEFWNQFSQKIKASVLSIFQKRLTHLQHSLANLQKGNNFEEQLLTREKLYELYVVFNILEDASLELQKIKKEILRRNMNMPDGKLQVPFESSSKSDESLGSIIIEGTLDKFQLHKYFFIRRLRLLKLEDQTLTAFVGAFQLIKNFIESISIEYRKSVRLLEFKHYFITSMLSYFEFENVSNPLLCEIKAELLMLKRDNWVQGVMATSGYRLMDKNYPNSDVKYKFDLLKETFVDETVFQENFLTLTKEILSLFNKCEGKRQRIVDILSIEIGLLYYQGKKYEEAVSLFLSCYEYYTQTNWNSIGLKILQVFIDSLSHCPKLDVLQIDGESVSASAVLTNAFLNILKLCKDNDSKEIWWKKFMDLQMKNNIHLMYPLDGLFEVTLNSKVHLARANVSAIEVNLKSYGFPEDISTKTMRLSLKNMGGDVIVFGASDFLLKKGENKLILECRDIMYGEFSLLSFEIIVEGITFVKEFPENQDEFIVVPEIYCKESTKVLVKQAHNLNLGEYALELKSVQSDALESLQVEVEVQKNIGNMKNLPVSFSMDEIQARKRYNTPFENVRLEYYLLDQITAFDLIIKTSFTKKNDQGTFGETKKVRIQCYLQLSVSVEDIFKKDIFFFKFLLNSSVREEPVILYSSELSAPDTRNDYNIRGDYIATTPALITFDGNESFINCYEITANNNFDSKDIFNLKVRYNTLKEQLDCFITDAVLIEGDVEWFILFEKWKTFWELEILKKLKYDYDAFKENRIIRLLKTSIDLNKTKSKIRNLCIEKAVLDKILICLNKVSRGIAVCNTDMDEYVRNLVPKQLTVPVQLPGFEQFFHVQFEQMETSHDALHDTIATIGNSLSYTVIVENLSGQWGQDVIDDGGYIFEILSSNEWLIHGQKRCAIKEKRKEFEVHLIPLKKGYLNFPRVEITNINGKSCRVDHSNAFESILIF

Assays:
[1] = molecular target: T1, Trs120 with a C-terminal TAP tag …; experiment: single-particle EM
[2] = molecular target: B1; experiment: single-particle EM

Row | binding result [1] | binding result [2] | Binder
1 | binds | – | B1
2 | binds | – | Bet3 (natural protein, S. cerevisiae (endogenous in yeast), UniProt P36149 1-193, looked up) MVSTTQSRSLKAMGEEIWKNKTEKINTELFTLTYGSIVAQLCQDYERDFNKVNDHLYSMGYNIGCRLIEDFLARTALPRCENLVKTSEVLSKCAFKIFLNITPNITNWSHNKDTFSLILDENPLADFVELPMDAMKSLWYSNILCGVLKGSLEMVQLDCDVWFVSDILRGDSQTEIKVKLNRILKDEIPIGED
3 | binds | – | Trs33 (natural protein, S. cerevisiae (endogenous in yeast), UniProt Q99394 1-268, looked up) MSSTHSNNVGHPQSSPQGPLTEQQRAQQQYQIFENSLPKVSQSVYQMLLNEMVPLAMGIERQISGDVISSDSNVTSENGNINNMIKRLKIEEHHTVDIIRSHNLIHELYKADEEEKEKVLARLRNIGFQIGLKLSELLIFSNNPNLKFKEMDLLLIMKFICRDVWKQIFGKQIDNLKTNHRGTFYLLDYDYRPIQSFSLEEDAKNEELKMIEPFLEIPVGIIRGVLSSLGYSSEEVICLASFIDRPTDRPKTAFPKGVSFHVQVTMPQ
4 | – | binds | Trs20 (natural protein, S. cerevisiae (endogenous in yeast), UniProt P38334 1-175, looked up) MPQYFAIIGKKDNPVYEIEFTNAENPQGFPQDLKELNPFILHASLDIVEDLQWQINPTSQLNGNGGNGSNGGGGFLRSRAVNNTDNCYLGKVDHFYGLAITAYISYSGMKFVMIHGNSANSSVVIDDNNMRSFYQEVHELYVKTLMNPFYKITDPIRSPAFDSRVRTLARKHLSK
